{"source": "paper PMC3646996", "about": "(Journal of molecular biology, 2013)", "molecules": {"B1": {"name": "F1 (dsDNA)", "DNA 1": "GCTTTACTTTTGGTTACATATTTCG", "DNA 2": "CGAAATATGTAACCAAAAGTAAAGC"}, "B2": {"name": "OmpR (unphosphorylated, untreated) (natural protein, Escherichia coli, UniProt P0AA16 1-239, looked up)", "chain": "MQENYKILVVDDDMRLRALLERYLTEQGFQVRSVANAEQMDRLLTRESFHLMVLDLMLPGEDGLSICRRLRSQSNPMPIIMVTAKGEEVDRIVGLEIGADDYIPKPFNPRELLARIRAVLRRQANELPGAPSQEEAVIAFGKFKLNLGTREMFREDEPMPLTSGEFAVLKALVSHPREPLSRDKLMNLARGREYSAMERSIDVQISRLRRMVEEDPAHPRYIQTVWGLGYVFVPDGSKA"}, "B3": {"name": "BeF3−-treated OmpR (natural protein, Escherichia coli, UniProt P0AA16 1-239, looked up)", "chain": "B2 chain", "modifications": "BeF3− (noncovalent small molecule phosphoryl analog); residue not given"}}, "key": {"PhoB (Escherichia coli) [1]": {"molecular_target": "PhoB (Escherichia coli) (UniProt P0AFJ5)", "sequence (P0AFJ5 whole entry)": "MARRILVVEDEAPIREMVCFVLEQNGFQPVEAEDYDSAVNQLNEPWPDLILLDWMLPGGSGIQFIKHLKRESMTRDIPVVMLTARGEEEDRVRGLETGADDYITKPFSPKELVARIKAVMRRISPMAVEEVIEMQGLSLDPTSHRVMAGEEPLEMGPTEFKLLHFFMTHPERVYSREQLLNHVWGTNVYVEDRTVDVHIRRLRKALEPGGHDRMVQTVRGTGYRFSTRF", "conditions": "cited from earlier work"}, "PhoB (Escherichia coli) [2]": {"molecular_target": "PhoB (Escherichia coli) (UniProt P0AFJ5)", "conditions": "cited from earlier work", "remark": "listed apart in the source"}, "OmpR": {"molecular_target": "T1, OmpR (Escherichia coli, UniProt P0AA16 1-239)", "T1 sequence": "B2 chain", "test": "ITC"}, "AUC [3]": {"molecular_target": "the molecule itself", "test": "AUC"}, "AUC [4]": {"molecular_target": "the molecule itself", "test": "AUC", "remark": "listed apart in the source"}}, "note": "Where two headings read alike, the source gives them in different places."}
{"molecule": "PhoB (from UniProt P0AFJ5)", "values": [{"measurement": "Kd", "setting": "PhoB (Escherichia coli) [1]", "result": 5.1, "unit": "µM"}, {"measurement": "Kd", "setting": "PhoB (Escherichia coli) [2]", "result": 380, "unit": "µM"}]}
{"molecule": "B1", "values": [{"measurement": "Kd", "setting": "OmpR", "result": 2, "unit": "µM"}]}
{"molecule": "B2", "values": [{"measurement": "Kd", "setting": "AUC [3]", "result": 1100, "unit": "µM"}, {"measurement": "stoichiometry N", "setting": "AUC [3]", "result": 2}]}
{"molecule": "B3", "values": [{"measurement": "Kd", "setting": "AUC [4]", "result": 7, "unit": "µM"}, {"measurement": "stoichiometry N", "setting": "AUC [4]", "result": 2}]}
